Experimental data as given in patent US20050176069A1 (PHARMACIA AND UPJOHN, published 2005).
Like-named read-outs stand apart in the source and are kept apart here. Where no end group is shown, it is not given here. [ ]: non-standard residue; d: D form. Tyr(3-I) = N[C@@H](Cc1ccc(O)c(I)c1)C(=O)O; pGlu = O=C1CC[C@@H](C(=O)O)N1

T1: CEGPCR12h (C. elegans)
T1 chain: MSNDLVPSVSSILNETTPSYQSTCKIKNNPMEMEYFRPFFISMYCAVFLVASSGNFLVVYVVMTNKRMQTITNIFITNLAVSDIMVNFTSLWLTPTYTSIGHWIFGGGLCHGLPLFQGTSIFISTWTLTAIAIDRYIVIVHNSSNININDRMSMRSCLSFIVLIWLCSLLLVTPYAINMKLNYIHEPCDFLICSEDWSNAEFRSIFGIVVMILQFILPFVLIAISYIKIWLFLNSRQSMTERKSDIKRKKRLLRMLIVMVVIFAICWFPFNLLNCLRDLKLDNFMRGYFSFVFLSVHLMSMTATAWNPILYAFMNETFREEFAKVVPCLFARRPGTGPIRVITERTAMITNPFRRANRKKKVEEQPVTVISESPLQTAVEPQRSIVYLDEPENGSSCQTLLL

T2: CEGPCR4 (C. elegans)
T2 chain: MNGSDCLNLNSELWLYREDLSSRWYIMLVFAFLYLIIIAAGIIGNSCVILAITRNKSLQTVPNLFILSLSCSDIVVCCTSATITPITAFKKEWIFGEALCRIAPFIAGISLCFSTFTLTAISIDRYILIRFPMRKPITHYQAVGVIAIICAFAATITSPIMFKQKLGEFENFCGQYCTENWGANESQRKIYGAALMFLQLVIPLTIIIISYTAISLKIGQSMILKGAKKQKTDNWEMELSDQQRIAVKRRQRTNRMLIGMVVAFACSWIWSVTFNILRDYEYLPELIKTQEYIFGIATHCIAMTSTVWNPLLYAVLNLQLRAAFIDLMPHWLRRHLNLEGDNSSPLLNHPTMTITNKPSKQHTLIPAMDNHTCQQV

T3: CEGPCR7 (C. elegans), Q18534
T3 chain: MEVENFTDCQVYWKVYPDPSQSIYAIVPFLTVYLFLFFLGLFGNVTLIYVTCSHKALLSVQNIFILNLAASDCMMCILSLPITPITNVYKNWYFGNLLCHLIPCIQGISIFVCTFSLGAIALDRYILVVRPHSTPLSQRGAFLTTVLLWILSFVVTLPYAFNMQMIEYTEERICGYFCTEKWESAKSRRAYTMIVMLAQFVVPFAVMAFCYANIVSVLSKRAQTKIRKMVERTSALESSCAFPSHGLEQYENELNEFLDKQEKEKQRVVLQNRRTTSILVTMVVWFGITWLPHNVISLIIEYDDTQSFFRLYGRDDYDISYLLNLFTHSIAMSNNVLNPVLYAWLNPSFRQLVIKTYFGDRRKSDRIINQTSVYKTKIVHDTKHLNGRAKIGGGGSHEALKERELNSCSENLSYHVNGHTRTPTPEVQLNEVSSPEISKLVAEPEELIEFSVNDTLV

T4: CEGPCR3 (C. elegans, UniProt P90745 1-376)
T4 sequence: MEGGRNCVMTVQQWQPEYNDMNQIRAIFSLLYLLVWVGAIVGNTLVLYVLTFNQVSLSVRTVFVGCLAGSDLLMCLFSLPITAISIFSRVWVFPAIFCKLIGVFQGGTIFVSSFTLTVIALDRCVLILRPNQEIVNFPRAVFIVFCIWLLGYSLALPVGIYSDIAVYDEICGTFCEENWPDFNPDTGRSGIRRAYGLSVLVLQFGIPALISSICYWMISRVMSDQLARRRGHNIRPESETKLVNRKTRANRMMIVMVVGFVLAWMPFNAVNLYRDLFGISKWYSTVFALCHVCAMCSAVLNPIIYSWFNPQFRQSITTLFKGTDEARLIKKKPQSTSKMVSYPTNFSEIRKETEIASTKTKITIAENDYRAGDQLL

T5: CEGPCR4 (C. elegans)
T5 construct: Expressed in CHO cells
T5 chain: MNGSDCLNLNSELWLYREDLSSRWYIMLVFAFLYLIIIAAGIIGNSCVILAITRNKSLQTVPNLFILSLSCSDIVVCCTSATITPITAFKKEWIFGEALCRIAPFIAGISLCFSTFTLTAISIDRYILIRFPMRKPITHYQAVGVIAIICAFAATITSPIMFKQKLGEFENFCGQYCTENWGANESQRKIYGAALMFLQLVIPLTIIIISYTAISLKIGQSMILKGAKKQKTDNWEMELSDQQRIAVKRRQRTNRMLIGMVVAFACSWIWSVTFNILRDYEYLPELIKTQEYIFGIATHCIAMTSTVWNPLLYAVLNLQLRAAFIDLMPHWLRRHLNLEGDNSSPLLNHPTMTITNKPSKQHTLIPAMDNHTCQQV

T6: CEGPCR16 (C. elegans)
T6 chain: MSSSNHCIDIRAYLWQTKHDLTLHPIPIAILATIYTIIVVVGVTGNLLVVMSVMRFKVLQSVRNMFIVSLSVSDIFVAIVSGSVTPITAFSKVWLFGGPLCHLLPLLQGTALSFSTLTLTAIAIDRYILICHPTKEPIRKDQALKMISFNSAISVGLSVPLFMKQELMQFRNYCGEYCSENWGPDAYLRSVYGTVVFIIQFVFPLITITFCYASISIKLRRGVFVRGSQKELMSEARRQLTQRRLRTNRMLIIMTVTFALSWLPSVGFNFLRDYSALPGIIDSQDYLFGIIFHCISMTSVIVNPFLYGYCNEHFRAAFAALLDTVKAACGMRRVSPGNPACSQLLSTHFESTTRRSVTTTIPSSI


Experiments:
CEGPCR12h (C. elegans) = biological target: T1, CEGPCR12h (C. elegans); test: cell-based or functional assay
CEGPCR4 (C. elegans) = biological target: T2, CEGPCR4 (C. elegans); test: competition binding assay, CEGPCR4/CHO membranes, vs [125I-Y]DVPGVLRF-NH2
[1] = biological target: T3, CEGPCR7 (C. elegans), Q18534; test: cell-based or functional assay
CEGPCR3 = biological target: T4, CEGPCR3; test: cell-based or functional assay
CEGPCR4 = biological target: T5, CEGPCR4; test: competition binding assay, CEGPCR4/CHO membranes, vs [125I-Y]DVPGVLRF-NH2
CEGPCR16 = biological target: T6, CEGPCR16; test: cell-based or functional assay

| Binder | IC50 (CEGPCR4 (C. elegans)) [nM] | IC50 (CEGPCR4) [nM] | also measured |
| --- | --- | --- | --- |
| PDVDHVFLRF-NH2 […-NH2 (SchistoFLRFa)] | 60000 to 900000 | – | EC50, [35S]GTPγS assay (CEGPCR12h (C. elegans)): 330 nM |
| GLGPRPLRF-NH2 […-NH2 (AF9)] | – | – | AF9-induced [35S]GTPγS binding, cells kept at 37° C. (third of three experiments; no stimulation in the other two) [1]: 1.4 fold; AF9-induced [35S]GTPγS binding, cooling (28° C.) protocol [1]: 2.6 fold; EC50, GTPγS assay [1]: 207 nM |
| AVPGVLRF-NH2 [AVPGVLRF-NH2 (AF3)] | 0.5 to 10 | – | – |
| GDVPGVLRF-NH2 […-NH2 (AF4)] | 0.5 to 10 | – | – |
| GMPGVLRF-NH2 [GMPGVLRF-NH2 (AF20)] | 0.5 to 10 | – | – |
| [pGlu]DVDHVFLRF-NH2 (SMILES CC(C)C[C@H](NC(=O)[C@H](Cc1ccccc1)NC(=O)[C@@H](NC(=O)[C@H](Cc1c[nH]cn1)NC(=O)[C@H](CC(=O)O)NC(=O)[C@@H](NC(=O)[C@H](CC(=O)O)NC(=O)[C@@H]1CCC(=O)N1)C(C)C)C(C)C)C(=O)N[C@@H](CCCNC(=N)N)C(=O)N[C@@H](Cc1ccccc1)C(N)=O) [p…-NH2 (leucomyosuppressin)] | 60000 to 900000 | – | – |
| TDVDHVFLRF-NH2 […-NH2 (dromyosuppressin)] | 50000 to 500000 | – | – |
| GPSGPLRF-NH2 [GPSGPLRF-NH2] | – | – | EC50, GTPγS assay (CEGPCR3): 422 nM |
| GNSFLRF-NH2 (also called GNSFLRFamide) [GNSFLRF-NH2] | – | 60000 to 900000 | EC50, GTPγS assay (CEGPCR3): 7900 nM |
| SVPGVLRF-NH2 [SVPGVLRF-NH2] | – | 0.5 to 10 | EC50, [35S]GTPγS assay (CEGPCR16): 64 nM |
| GGPQGPLRF-NH2 [GGPQGPLRF-NH2] | – | 50000 to 500000 | EC50, GTPγS assay (CEGPCR3): 152 nM |
| [Tyr(3-I)]PGVLRF-NH2 (N-terminus assumed; SMILES CC(C)C[C@H](NC(=O)[C@@H](NC(=O)CNC(=O)[C@@H]1CCCN1C(=O)[C@@H](N)Cc1ccc(O)c(I)c1)C(C)C)C(=O)N[C@@H](CCCNC(=N)N)C(=O)N[C@@H](Cc1ccccc1)C(N)=O, Synthetic; also called 3-Ioda-Y-PGVLRF-NH2) [3-Iodo-Y-PGVLRF-NH2] | – | 1 to 60 | – |
| [Tyr(3-I)]GVLRF-NH2 (N-terminus assumed; SMILES CC(C)C[C@H](NC(=O)[C@@H](NC(=O)CNC(=O)[C@@H](N)Cc1ccc(O)c(I)c1)C(C)C)C(=O)N[C@@H](CCCNC(=N)N)C(=O)N[C@@H](Cc1ccccc1)C(N)=O, Synthetic) [3-Iodo-Y-GVLRF-NH2] | – | 1 to 60 | – |
| SEVPGVLRF-NH2 [SEVPGVLRF-NH2] | – | 0.5 to 10 | – |
